Data on one substance can be found in publication PMC8427598, “Identification and Characterization of an Antennae-Specific Glutathione S-Transferase From the Indian Meal Moth” (Frontiers in Physiology, 2021).

In general, Km refers to the concentration of substrate that gives half-maximal velocity.

This series concerns O=[N+]([O-])c1ccc(Cl)c([N+](=O)[O-])c1. Description: purified protein. The conditions noted are these: 50 mM GSH, acetate-phosphate buffer pH 7.5 (b1, b25; b45 prints optimum pH 7.0), 35 °C.

For PiGSTd1 (Plodia interpunctella), the Km was determined as 229.2 ± 18.05 µM.
